According to PMC3325594 (International Journal of Toxicology, 2012):

Tests used:
female rats = experiment: 2-year carcinogenicity study, survival rates in female rats; assay type: in vivo; settings: 5 IU/kg
female mice = experiment: 2-year carcinogenicity study, survival rates in female mice; assay type: in vivo; settings: 12.5 IU/kg
rats = settings: 12-month toxicity study; cited from earlier work
insulin receptor (IR) = settings: in vitro; cited from earlier work
[1] = test system: insulin-like growth factor 1 receptor (IGF-1R); settings: in vitro; cited from earlier work
mammalian cell lines = settings: cited from earlier work
[2] = test system: insulin receptor (IR) signaling; settings: cited from earlier work
[3] = test system: mammary gland of young female rats; settings: 26-week toxicity study; cited from earlier work

Substance “NPH: neutral protamine Hagedorn (NPH) insulin, comparator group” has a Survival rate (female rats; week 80) of 72%, a Survival rate (female rats; week 81) of 72% and a Survival rate (female rats; week 82) of 72%. It also gave a Survival rate (female rats; week 83) of 70%, a Survival rate (female rats; week 84) of 70% and a Survival rate (female mice; week 80) of 56%. The Survival rate (female mice; week 81) was 56%, the Survival rate (female mice; week 82) was 56% and the Survival rate (female mice; week 85) was 50%. For the same substance, the “Survival, animals alive” value (female mice; week 88, of 50 initial animals) was 22 n and the “Survival, animals alive” value (female mice; week 89, of 50 initial animals) was 22 n.
For [Asp^B10] insulin, the “Incidence of mammary tumors” value (rats) is given as “higher incidence of mammary tumors”, the “Affinity toward the insulin receptor (IR) compared to regular human insulin” value (insulin receptor (IR)) is given as “higher affinity” and the “Occupancy time at the IR compared to regular human insulin” value (insulin receptor (IR)) is given as “prolonged occupancy time”. The “Affinity toward IGF-1R compared to regular human insulin” value [1] was “higher affinity” and the “Proliferation rate in mammalian cell lines compared to regular human insulin” value (mammalian cell lines) was “higher proliferation rate”.
For “[Gly^A21, des-Thr^B30]-human insulin [M2]”, the “In vitro metabolic and mitogenic profiles” value [2] is given as “comparable with human insulin”.
For [Gly^A21] human insulin [M1], the “In vitro metabolic and mitogenic profiles” value [2] is listed as “comparable with human insulin”.
For insulin detemir, the “Proliferative effect in the mammary gland” value [3] is given as “modest proliferative effect”.
